Source: the Human Domainome abundance scans (Beltran et al. 2025)

B1: Poly(rC)-binding protein 1, residues 278 to 350; numbered along this chain, Q15365 (parent)
chain: TQTTHELTIPNNLIGCIIGRQGANINEIRQMSGAQIKIANPVEGSSGRQVTITGSAASISLAQYLINARLSSE

Variants of: B1
Assay: abundance fitness (aPCA) (normalised: wild type 0, dead -1); higher = more abundant; growth selection in yeast, the domain comes from the species named
Details: Homo sapiens

Abundance fitness of substitutions, site by site:
L7: T -0.447 | D -0.616 | P -1.03 | V -0.043 | R -0.354 | Y -0.436 | Q -0.382 | I -0.013 | A -0.504 | C -0.208 | N -0.803 | H -0.744 | S -0.468 | W -0.274 | E -0.331 | G -0.517 | M 0.113 | F -0.051 | K -0.53
L13: C -0.21 | A -0.069
P10: D -0.363 | Q -0.538 | H -0.442 | A -0.117 | K -0.181 | L -0.597 | C -0.577 | G -0.474 | S -0.274 | E -0.237 | I -0.696 | R -0.504 | T -0.549 | V -0.707 | W -0.915 | M -0.868 | N -0.938
N12: P -0.186 | T -0.053 | H -0.009 | D -0.272 | V -0.306 | C -0.267 | G -0.282 | R 0.027 | M -0.316 | S -0.022 | A -0.148 | L -0.35 | E -0.202 | F -0.459 | K -0.004
T4: H -0.26 | N -0.138 | I -0.292 | E -0.113 | D -0.284 | Y 0.013 | S 0.008 | V -0.088 | M -0.189 | P -0.271 | L -0.217 | W -0.31 | Q -0.087 | R -0.155 | A -0.109 | F -0.182
N11: A -0.075 | C -0.165 | I -0.21 | R -0.264 | Y -0.549 | D 0.186 | L -0.473 | S -0.09 | M -0.28 | T -0.169 | V -0.352 | K -0.171 | H -0.025 | F -0.061 | W -0.425 | E -0.045 | P -0.347
T8: G -0.559 | Q -0.076 | N 0.081 | C 0.098 | R -0.028 | S -0.074 | V 0.207 | L -0.032 | M 0.028 | W -0.064 | A -0.124 | Y 0.05 | K -0.128 | E 0.069 | H 0.017 | D 0.144 | I -0.008
T3: L 0.079 | N 0.113 | P -0.16 | K 0.257 | S 0.119 | V 0.023 | H 0.147 | Y -0.221 | Q 0.11 | M 0.161 | I -0.345 | R 0.119
E6: S 0.08 | R 0.164 | W -0.102 | P -0.965 | A 0.002 | Q 0.156 | H 0.232 | K 0.113 | T 0.294 | I 0.116 | N 0.161 | C 0.168 | Y 0.218 | V 0.135 | F -0.088 | M 0.07
I9: T -0.79 | H -0.039 | R -0.732 | G -0.771 | Y -0.567 | Q -0.767 | P -0.835 | L -0.072 | S -0.885 | V 0.076 | D -0.714 | W -0.847 | E -0.942 | A -0.688 | F 0.066 | N -0.805 | M -0.356 | C -0.839
H5: E -0.073 | Y -0.083 | C 0.104 | Q 0.253 | W 0.091 | V 0.217 | A 0.139 | M 0.136 | K 0.107 | T 0.066 | S 0.091 | F -0.32 | P -0.699 | N -0.173 | R 0.091 | I 0.113 | G -0.081 | D -0.323
